Results on two molecules are retold here after patent publication US20180028658A1 (NEW YORK BLOOD CENTER, published 2018).

Assay [1] addresses T1, HIV-1 Env expressed on the surface of ACH-2 cells reactivated with TNF-α (HIV-1). Description: cell-based or functional assay.
Assay [2] addresses T2, BG505 SOSIP.664 gp140 trimer (HIV-1 BG505).
T2 construct: domain: gp140; Provided by Dr. John P Moore; When cleaved, each protomer is a gp120 chain plus a gp41 ectodomain chain; also called BG505 SOSIP.646; cleavable version gp140 trimer
Description: SPR (BIAcore).

Assay [3] deals with HIV-1 gp41 (strain not stated) (HIV-1). Description: method not given.
Assay [4] concerns the target T2, BG505 SOSIP.664 gp140 trimer. In words: method not given.
The target of assay [5] is T3, full-length gp120 monomer (HIV-1 (Yu2 by the materials, not named …, UniProt P35961 32-498)).
T3 construct: domain: gp120; The tie to strain Yu2 is inferred from 'full-length Yu2 gp120 protein' in the materials. gp120IIIB and gp120BaL were also bought; General statements about 'gp120' are entered under this molecule; also called HIV-1 gp120 monomer; monomeric full-length gp120
In words: SPR (BIAcore); lower end of the stated KD range.

Assay [6] concerns the target T4, Recombinant gp41HXB2 (ecto-domain aa546 to 682) (HIV-1 HXB2, UniProt P04578 546-682).
T4 construct: range 546-682; Bought from Aviva System Biology Corp; also called gp41 from HIV-1 HXB2 ecto-domain
In words: ELISA on coated gp41HXB2, OD at 405 nm.

Assay [7] has as its target HIV-1 gp41 (strain not stated) (HIV-1). Description: SPR (BIAcore), Env protein immobilized on CM5 chip, antibody as analyte.
The target in assay [8] is T2, BG505 SOSIP.664 gp140 trimer. Described as above.
Assay [9] has as its target T3, full-length gp120 monomer. Described as above.
In assay [10] the target is T5, SF162 gp140 trimer (HIV-1 SF162, UniProt P19550 32-675).
T5 construct: domain: gp140; Obtained from the NIH AIDS Reagent Program; also called non-cleavable version of gp140 trimer (SF162); uncleaved SF162 gp140 trimer
In words: ELISA on coated SF162 gp140 trimer, OD at 405 nm, 1x PBS as blank.

The target of assay [11] is T3, full-length gp120 monomer. Description: ELISA on coated full-length gp120 monomer, OD at 405 nm, 1x PBS as blank.
Assay [12] concerns the target T2, BG505 SOSIP.664 gp140 trimer. Description: ELISA on coated BG505 SOSIP.664 gp140 trimer, OD at 405 nm, 1x PBS as blank.
In assay [13] the target is T1, HIV-1 Env expressed on the surface of …. Description: flow cytometry titration on activated ACH-2 cells, from 20 µg/ml in 1:3 dilutions, FITC second antibody.

B1: vc-MMAE-NIH45-46 G54W (NYBC-HC-001) (antibody, V domains shown)
VH: QVRLSQSGGQMKKPGESMRLSCRASGYEFLNCPINWIRLAPGRRPEWMGWLKPRWGAVNYARKFQGRVTMTRDVYSDTAFLELRSLTSDDTAVYFCTRGKYCTARDYYNWDFEHWGRGAPVTVSS
VL: EIVLTQSPATLSLSPGETAIISCRTSQSGSLAWYQQRPGQAPRLVIYSGSTRAAGIPDRFSGSRWGADYNLSISNLESGDFGVYYCQQYEFFGQGTKVQVDI
modifications: MC-vc-PAB-MMAE linker payload on cysteines reduced with TCEP (sites and number not stated)
On to B1, for which the “EC50 of cell killing, […]-BLUE cell viability assay on activated ACH-2 latent cells” value in [1] was found to be 0.85 µg/mL.

B2: NIH45-46 G54W (antibody, V domains shown)
VH: QVRLSQSGGQMKKPGESMRLSCRASGYEFLNCPINWIRLAPGRRPEWMGWLKPRWGAVNYARKFQGRVTMTRDVYSDTAFLELRSLTSDDTAVYFCTRGKYCTARDYYNWDFEHWGRGAPVTVSS
VL: EIVLTQSPATLSLSPGETAIISCRTSQSGSLAWYQQRPGQAPRLVIYSGSTRAAGIPDRFSGSRWGADYNLSISNLESGDFGVYYCQQYEFFGQGTKVQVDI
notes: Human IgG1; Obtained from the NIH AIDS Reagent Program and also made recombinantly (VH and VK genes in human b12 Igγ and Igκ backbone vectors, 293T cells); FITC-labelled in the uptake experiments; also called NIH45-45 G54W
Turning to B2, the Kd is 0.23 to 0.29 nM in [2]; approximately 1 nM in assay [3]; approximately 0.1 nM in assay [4]; 0.11 to 0.17 nM in assay [5]; 6.75 nM in assay [7]; 0.267 nM in [8]. In addition, in [9], the Kd is 0.11 nM. Further, the binding result in assay [6] is on record as “binds”. In addition, the koff in assay [7] worked out at 0.00461 s⁻¹; in assay [8] it was 5.37e-06 s⁻¹; in [9], 4.94e-06 s⁻¹. Besides, the kon in assay [7] came to 683000 M⁻¹ s⁻¹; in assay [8], 20100 M⁻¹ s⁻¹. Moreover, the “EC50 (read off the curve)” value in assay [10] is approximately 0.2 µg/mL; in assay [11], approximately 0.5 µg/mL; in assay [12] it was approximately 0.01 µg/mL. Further, in assay [13], the EC50 is 5.2 µg/mL.
